The source of these data is article PMC9333443, “Structural insights into Pot1-ssDNA, Pot1-Tpz1 and Tpz1-Ccq1 Interactions within fission yeast shelterin complex” (PLoS Genetics, 2022).

The labels stand for the following.
B1: Tpz1, two-hybrid fusion, wild type (construct limits not stated) [S. pombe] / Ccq1, two-hybrid fusion, wild type (construct limits not stated) [S. pombe] (parent complex)
chain 1: MSNCLKHPWLENGLLNLIKNADVLPIRVFKCQPLQIFEYIRYEHPIRCKLSDTEFYIEAEFSSQSISDLNNFTEKRITSLRGGIVTLGNFLIHLIPSQSGIIPWIQVESFNFQGCEGAVFGNPKAITTSALFNALLQSPYLAALANEFNRSIKEGSSYQEASLSQQEKPNDNTSNSRDIKNNIQFHWKNMTSLSIEECIIPKGQQLILEKESEENTTHGIYLEERKMAQGLHNSVSETPEVKQEDNDEDLDAYSWSSSTDSAGEIPSLPTNRKILEKIAEKPPPFESPLEDDETPDQTNEHEANQVNVSQLPLNPRGSGISGRPVESTEQLNSSLTIERSQSIQSTDSKQRVETQSHRRSKIEIFDAQDELFDRSICTTIDDSTGKLLNAEETPIKTGDLHSTSASSVISCTPPAINFTSDICNEQIELEYKRKPIPDYDFMKGLETTLQELYVEHQSKKRRLELFQLTNNHQKNSEACEMCRLGLPHGSFFELLRDWKKIEEFRNKS
chain 2: MSEINDFTNSIIINESDTKYEVYSEVNSSNRWIAKEDCPSPLEDVWLLKLAGHKRKLEEPLSCMRNEEPASKQREIEKFLRTDLDHSENDFLTQEVDEFPSTQQLFPIPLQNDTAFDSSEESITKSSKSSFSVLDIGLPMSALQRKMMHRLVQYFAFCIDHFCTGPSDSRIQEKIRLFIQSAHNIAKHPSLYDTEVRNPSAAESTNSHVSLDASNFSSYAENSSKFLFLQELFKNLSPSYSKTFFLFISNQFLANTLTQWLKSQNIDAELWAEEDAKTSQHPAIWICVSKKAPSASHFLQSCPDLSATIFYDIEAYMSVTSSLPSIQSLVLRLIHLGSIEHAIKCFQSSYNASFLVNIVGVVATLSSSSEENSEASNLSTLFEKSGNFEEILGSESHSSITEKTRDIAKNVATWLKNGENFSSWPLPPLMDLASLSVAEPRDSQPSVSQVNDTFVKSSDSTFPSSQSMQSPSKLHSLTSNATDLLSSSSLKKNFFSQQEADEVELSNNYDLQGAAVQYLQRRLRMVEDELHEAINSKNVQQSRSEELEQQISKLTDNLQEYRNTVRELKLDLEKSKKKNEDLSKLEVEKVEEIANLKKELTHLAKQQEFGFKYVQEFSNEDLQGKLIEANEKNYKLTQLLKTQKEDADFITNQYQNASTFAAEQSKEVAKLQAECKRLQAINSKVMEEVKVYNDSRVEALLAKVSSLEETLKILEQKSLPKFTPHNQSPRIIDSN

The first assay covers variants of B1. The assay is described as follows: yeast two-hybrid (β-galactosidase); parent: 100; read off a plot.
Turning to chain 2 E221R, the percent of parent is around 31 % WT.

On to chain 2 M147R, for which the percent of parent is around 13 % WT.

In the case of chain 2 L151R, the percent of parent was around 13 % WT.

In the case of chain 2 F155R, the percent of parent is around 13 % WT.

As to chain 2 L143R, the percent of parent was around 16 % WT.

Regarding chain 2 P189R, the percent of parent was around 13 % WT.

As to chain 2 I185R, the percent of parent is around 13 % WT.

For the variant chain 2 L177R, the percent of parent is around 85 % WT.

Variants of B1 are the subject of the next assay. Described as above. The source holds these as a separate data set.
In the case of chain 1 Y439A, the percent of parent is around 15 % WT.

As to chain 1 Y453R, the percent of parent was around 16 % WT.

As to chain 1 H456A, the percent of parent was around 100 % WT.

Consider chain 1 K432A, for which the percent of parent was around 72 % WT.

Consider chain 1 L449R, for which the percent of parent was around 15 % WT.

Take chain 1 F441A: the percent of parent is around 14 % WT.

With chain 1 D438A, the percent of parent is around 100 % WT.

On to chain 1 L445R, for which the percent of parent is around 14 % WT.

Consider chain 1 P435A, for which the percent of parent was around 65 % WT.

Turning to chain 1 R433A, the percent of parent is around 90 % WT.
